Experimental data from patent US20090192112A1 (REGENTS OF THE UNIVERSITY OF MICHIGAN, published 2009).

Columns and labels:
disheveled-3 (Dvl-3) = target: T1, disheveled-3 (Dvl-3) (human, UniProt Q92997 1-716, limits assumed); experiment: co-IP, BxPC3 lysate
T1 construct: Endogenous protein in cell lysate
T1 sequence (looked up): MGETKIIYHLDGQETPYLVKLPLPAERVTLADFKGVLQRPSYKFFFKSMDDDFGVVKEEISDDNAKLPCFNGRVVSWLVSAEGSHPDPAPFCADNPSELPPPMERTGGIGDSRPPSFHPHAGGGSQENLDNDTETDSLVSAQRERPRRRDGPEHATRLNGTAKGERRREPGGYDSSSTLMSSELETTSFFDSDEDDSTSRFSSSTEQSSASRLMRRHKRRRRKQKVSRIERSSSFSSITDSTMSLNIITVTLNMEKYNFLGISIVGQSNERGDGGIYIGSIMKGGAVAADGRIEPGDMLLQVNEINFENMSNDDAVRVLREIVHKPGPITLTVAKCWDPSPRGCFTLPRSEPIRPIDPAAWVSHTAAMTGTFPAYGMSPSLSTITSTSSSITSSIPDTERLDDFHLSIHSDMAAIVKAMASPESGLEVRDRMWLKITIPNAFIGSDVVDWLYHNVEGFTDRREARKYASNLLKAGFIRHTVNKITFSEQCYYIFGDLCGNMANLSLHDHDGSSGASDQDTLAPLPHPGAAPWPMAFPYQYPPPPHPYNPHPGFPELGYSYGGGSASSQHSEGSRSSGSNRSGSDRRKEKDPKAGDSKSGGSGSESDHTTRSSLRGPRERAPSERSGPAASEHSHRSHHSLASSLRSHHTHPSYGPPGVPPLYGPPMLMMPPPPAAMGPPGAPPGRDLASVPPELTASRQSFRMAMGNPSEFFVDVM

disheveled-1 (Dvl-1) = target: T2, disheveled-1 (Dvl-1) (human, UniProt O14640 1-695, limits assumed); experiment: co-IP, BxPC3 lysate
T2 construct: Endogenous protein in cell lysate
T2 sequence (looked up): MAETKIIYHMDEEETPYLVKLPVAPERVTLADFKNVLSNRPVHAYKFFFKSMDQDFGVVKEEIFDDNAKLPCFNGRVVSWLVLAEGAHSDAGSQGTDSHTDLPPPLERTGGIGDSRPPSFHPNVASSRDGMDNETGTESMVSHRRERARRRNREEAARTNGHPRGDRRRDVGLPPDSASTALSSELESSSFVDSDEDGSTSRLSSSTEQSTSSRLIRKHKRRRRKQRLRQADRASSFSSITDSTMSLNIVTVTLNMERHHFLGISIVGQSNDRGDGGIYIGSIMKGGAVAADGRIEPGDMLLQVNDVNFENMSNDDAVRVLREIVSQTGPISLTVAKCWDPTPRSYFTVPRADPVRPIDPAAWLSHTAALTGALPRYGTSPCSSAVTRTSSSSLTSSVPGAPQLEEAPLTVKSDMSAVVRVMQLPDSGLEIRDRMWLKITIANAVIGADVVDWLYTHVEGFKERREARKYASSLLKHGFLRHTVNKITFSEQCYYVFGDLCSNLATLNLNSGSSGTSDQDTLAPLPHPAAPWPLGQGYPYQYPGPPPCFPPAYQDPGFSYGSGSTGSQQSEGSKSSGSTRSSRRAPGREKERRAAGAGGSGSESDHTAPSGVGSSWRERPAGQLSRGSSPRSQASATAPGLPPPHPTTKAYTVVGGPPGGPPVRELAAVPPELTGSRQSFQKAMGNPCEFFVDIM

β-catenin = target: T3, β-catenin (human, UniProt P35222 2-781); experiment: co-IP with β-catenin antibody, anti-ATDC western blot, BxPC3 lysate
T3 construct: Endogenous protein in cell lysate; also called beta-catenin
T3 sequence (looked up): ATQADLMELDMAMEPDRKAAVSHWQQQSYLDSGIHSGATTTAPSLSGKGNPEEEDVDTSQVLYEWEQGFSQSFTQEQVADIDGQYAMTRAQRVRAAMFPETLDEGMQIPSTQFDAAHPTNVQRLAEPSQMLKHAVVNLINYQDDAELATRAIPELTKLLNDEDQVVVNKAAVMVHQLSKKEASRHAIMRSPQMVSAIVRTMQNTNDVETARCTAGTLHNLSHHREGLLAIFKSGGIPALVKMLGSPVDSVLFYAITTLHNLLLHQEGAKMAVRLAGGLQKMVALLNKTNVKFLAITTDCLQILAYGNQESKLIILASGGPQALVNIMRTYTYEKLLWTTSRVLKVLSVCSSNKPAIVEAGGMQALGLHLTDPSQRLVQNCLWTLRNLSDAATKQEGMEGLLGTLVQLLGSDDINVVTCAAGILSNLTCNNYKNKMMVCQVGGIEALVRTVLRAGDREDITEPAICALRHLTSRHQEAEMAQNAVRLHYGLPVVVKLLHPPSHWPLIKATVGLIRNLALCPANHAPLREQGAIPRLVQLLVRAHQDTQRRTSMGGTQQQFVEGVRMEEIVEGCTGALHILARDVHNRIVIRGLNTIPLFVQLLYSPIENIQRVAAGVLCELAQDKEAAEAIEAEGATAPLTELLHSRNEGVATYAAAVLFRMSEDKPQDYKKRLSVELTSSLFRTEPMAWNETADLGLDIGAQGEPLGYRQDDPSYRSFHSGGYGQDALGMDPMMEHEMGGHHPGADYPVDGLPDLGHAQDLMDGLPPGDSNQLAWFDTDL
Procedure: HEK 293 cells with or without stable transfection of ATDC and BxPC-3 cells were lysed by sonicating for 5 sec in 1 ml of detergent free lysis buffer (PBS, 5 mM EDTA, 0.02% sodium azide, 10 mM iodoacetamide, 1 mM PMSF and 2 μg leupeptin) at 4° C. […] Antibody conjugated beads were prepared by combining 1 μg of polyclonal antibodies with 30 μl of a 50% protein A-Sepharose bead slurry in 0.5 ml of ice-cold PBS for 1 hr at 4° C. in a tube rotator and then were washed two times with 1 ml of lysis buffer. The antibodies used for co-immunoprecipitation were: Dvl-2, β-catenin (Cell Signaling Technology, Beverly, Mass.), axin, and GSK3β (Upstate, Temecula, Calif.). Cell lysates (500 μg) was incubated with the prepared beads and 10 μl of 10% BSA overnight at 4° C. The beads were washed four times with washing buffer (50 mM Tris-Hcl [pH 7.4], 300 mM NaCl, 5 mM EDTA, 0.02% sodium azide, 0.1% Triton X-100) and one time with ice-cold PBS. […] Images were visualized using an ECL detection system.
To ascertain the mechanism by which ATDC stabilizes β-catenin, it was first examined whether ATDC interacts with the components of the multi-protein complex that regulates β-catenin stability.

Measured: binding result

B1: ATDC (Ataxia-Telangiectasia Group D Complementing Gene, also known as TRIM29), endogenous (other, UniProt Q14134 1-588, looked up)
chain: MEAADASRSNGSSPEARDARSPSGPSGSLENGTKADGKDAKTTNGHGGEAAEGKSLGSALKPGEGRSALFAGNEWRRPIIQFVESGDDKNSNYFSMDSMEGKRSPYAGLQLGAAKKPPVTFAEKGELRKSIFSESRKPTVSIMEPGETRRNSYPRADTGLFSRSKSGSEEVLCDSCIGNKQKAVKSCLVCQASFCELHLKPHLEGAAFRDHQLLEPIRDFEARKCPVHGKTMELFCQTDQTCICYLCMFQEHKNHSTVTVEEAKAEKETELSLQKEQLQLKIIEIEDEAEKWQKEKDRIKSFTTNEKAILEQNFRDLVRDLEKQKEEVRAALEQREQDAVDQVKVIMDALDERAKVLHEDKQTREQLHSISDSVLFLQEFGALMSNYSLPPPLPTYHVLLEGEGLGQSLGNFKDDLLNVCMRHVEKMCKADLSRNFIERNHMENGGDHRYVNNYTNSFGGEWSAPDTMKRYSMYLTPKGGVRTSYQPSSPGRFTKETTQKNFNNLYGTKGNYTSRVWEYSSSIQNSDNDLPVVQGSSSFSLKGYPSLMRSQSPKAQPQTWKSGKQTMLSHYRPFYVNKGNGIGSNEAP
notes: Endogenous protein in lysates of human pancreatic cancer cell lines (BxPC3, Panc-1); also called endogenous ATDC
no binding: all assays above
